In data set [1] the target is T1, GST-HbCBF1 (Hevea brasiliensis, UniProt Q4KP31 1-231). As to the kind of experiment: competition EMSA; 125-fold molar excess cold competitor vs COR15a probe; 10 mM Tris-HCl pH 7.5, 100 mM KCl, 10% glycerol, 1 mM DTT, 0.1% NP-40, 1 mM spermidine, 0.5 ug fish sperm DNA, 4 ug protein, 1 ng probe, 25 C. Conditions: protein: recombinant; tags: N-terminal GST (pGEX-6p-1); blunt. On the technique in general: Mobility shift assays separate free from complexed probe on a gel.
T1 sequence (Q4KP31 entry or part of it): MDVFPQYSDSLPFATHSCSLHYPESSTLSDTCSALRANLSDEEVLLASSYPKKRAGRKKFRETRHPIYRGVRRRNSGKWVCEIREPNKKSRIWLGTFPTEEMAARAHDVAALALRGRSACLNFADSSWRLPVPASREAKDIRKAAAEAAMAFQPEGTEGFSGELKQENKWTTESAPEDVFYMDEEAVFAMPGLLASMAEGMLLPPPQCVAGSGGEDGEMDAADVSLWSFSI

Data set [2] concerns the target T1, GST-HbCBF1. As to the kind of experiment: EMSA; 10 mM Tris-HCl pH 7.5, 100 mM KCl, 10% glycerol, 1 mM DTT, 0.1% NP-40, 1 mM spermidine, 0.5 ug fish sperm DNA, 4 ug protein, 1 ng probe, 25 C. The following applies: protein: recombinant; tags: N-terminal GST (pGEX-6p-1); label: 5'-digoxigenin (hot probe); blunt.

B1: RD29a (dsDNA)
DNA 1: ATATACTACCGACATGAGTTCT
DNA 2: AGAACTCATGTCGGTAGTATAT
For the molecule B1, the binding result in data set [1] is listed as “binds”.

B2: RD29b (dsDNA)
DNA 1: CTACCGACATGAGTTCCAAAAAA
DNA 2: TTTTTTGGAACTCATGTCGGTAG
B2: in data set [1], the binding result is given as “binds”.

B3: COR15a (dsDNA)
DNA 1: TTTCATGGCCGACCTGCTTTTTT
DNA 2: AAAAAAGCAGGTCGGCCATGAAA
B3: the binding result in data set [2] is on record as “binds”.

B4: COR15b (dsDNA)
DNA 1: CTGATGGCCGACCTCTTTTTT
DNA 2: AAAAAAGAGGTCGGCCATCAG
Take B4: the binding result in data set [1] is reported as “binds”.
